Source: patent US20140329787A1, “PHYTOPHTHORA PHOSPHOLIPASE C” (Deakin University, priority 2011, published 2014)
Entries after “also recorded” stand apart in the source; their conditions may differ.

What was measured:
[1] = Hydrolysis of PIPx, neutral-lipid TLC; format: biochemical; settings: 0.2 mg/ml enzyme
Protocol: Lipid samples of 0.5 μl were applied to silica 60 TLC plates and allowed to dry prior to the addition of more sample. Neutral lipids were applied to 10×20 cm pre-absorption zone-bearing silica-60 plates (Sigma-Aldrich, USA) and resolved in a solvent mixture of hexane:diethyl ether:acetic acid (9:1:0.5). Phospholipids were resolved on 20×20 cm silica-60 plates (Merck, Australia), without a pre-absorption zone, in a solvent mixture of chloroform:methanol:acetic acid:water (90:40:12:2). Lipids were detected by spraying the dried TLC plates with a solution of 0.05% rhodamine B (Sigma) in methanol and destaining was performed by repeated spraying with 5 M KOH. Lipid spots were then visualised following UV excitation at 312 nm.
Alt-PLC and Alt-PLC2 were refolded into buffer A4 at a concentration of 0.2 mg/ml and a hydrolysis reaction was performed using PIPx (mixed phosphatidylinositols, Sigma) as the substrate. The reaction was performed as described previously and the resultant neutral lipids were extracted by diethyl ether phase extraction. The samples were analysed by neutral-lipid thin-layer chromatography, on silica 60 plates with a pre-absorption zone; the mobile phase employed was hexane: diethyl ether: acetic acid (9:1:0.5).

E. coli = experiment: Growth curves of E. coli expressing Alt-PLC and truncations; format: cell-based; settings: relative to E. coli not expressing Alt-PLC
Protocol: An analysis of function of the Alt-PLC truncations was performed using growth curves of Alt-PLC expressing E. coli cells (FIG. 28).
Therefore, growth curves of E. coli expressing Alt-PLC and the truncations allow determination of Alt-PLC function in vivo.

Molecule | monoacylglycerol production / phospholipase C activity level in vitro [1] | growth of expressing E. coli (function in vivo) (E. coli)
Alt-PLC2: Phytophthora sojae Alt-PLC with the additional 35aa fragment in the RAS-GEF domain, SEQ ID NO: 14 (protein, listed as Phytophthora sojae) MASGWRQKPRLDPWDPPSPPPLLEEAAPKPKPKTSRFSRRSTRAKSHARQQAQHVELEREKAFRLVRHGSDPLLNDAFYATQVQVGNFVKMGWLTKQGHMWKSWKTRFFVLFSDGTFAYYKNKGRKKIKGCMQLNDGVVSVQHVDIRLADKAYVFQIEKGFYKLLCYCCSQFEAELWVAALRSVRRVAPPCYEMDLTATEEKAGSNAVTRHLNKIFITDKQIAKRLAEFKANTHDHSYAAIHNFIVELDDAIIDRHHLEFYQDAEIELLPGNELVRLIRRHVEDRVFIPLYAEAYASLETDKVKTRRSNLEQHLKVLKQKTQADFGISKDLSVCNWKQAISVVNMLDCVSLPTHKFEVILSAGKAIMELIAQYNGELFEVSDEMLTAIFRYVVTMSSLSDLPTLRALLKYGYQHHPASQNKANVVTAFLNAIKWVECFEAGDESYQFDSLALAGSRVSVSISTNDVGIQFTTDGNGRGAIVYNIRKQSQAALSAAIVPGLSLIAINHEPVIGMPFDKIIQRVRTAALPKQLTFMTEFYYYQLLSLDSEMYQYLMCIAARRGDLDSAAWMRSSTIELNTLCSWEKSRGKQVFGFTPVSGKGSPLHAAVHNGQLSMVNYLISRGADVNLCNQKGRRPLHVVKQSIDMAMIIQSLIDAGADIDAMEKHGLTPLMFMCSRASLEGSATLLALGADVHCVAWTNGFSALEFAVKSEHTELVELCLSKGANPNAPTLDGNTSLHLAATQANTDIILRLLQGGANPNVQNRYGQTPAALLLASSPGGSSDVRILCLEILTCAGCRLDKRDLFGRQASHLASISRDSHVVDLLRKLGSLNREANGVEIDIFGCSSVDYSHRIEVDKSASYLGSQMPNSSWKMVDKDDHVSRSARPGSVDDLIRELVAGTEVDLVDVVSFVLFLDSFSSLNEVVDRLSAHVRNGVKSHGLIRLFIVVLLFRQSETKEADDLRDRFYSLISLNIDAKDKLEYFSLRGAGNYAVNYQAIPGMMSKVYGMESGFEPVSSGPFSAHLHRFVDAERWAEQCTLLTHAVFCKIPVRDFIPTGSKKKHSVEFTSIKRWFQHISAFVINAVLVQNTPEERAEVISFYLKVADYCISLHNHDTLASILYALQSTAVQRLRKTIDCLSLDAKKMMNEMQLLSDKGCREMNRLMRKTANPSMPYIGLYLQGFVGLNELPAFDKEGLVNANRLRRMGELAMEILHRQSVAYTLQHDEDVNKLLHVSLPYSSEESRYARSLELEPREADAIPLSDRGSYTLIDDDVDLENEVRESIGGDGTFGFRQWIRKQQVVHRNRSRSSVIALY | detection of monoacylglycerol production | same reduced growth rate shown by cells expressing Alt-PLC1
t1: truncated Phytophthora sojae Alt-PLC1, SEQ ID NO: 17 (protein, Derived from Phytophthora sojae) YQFDSLALAGSRVSVSISTNDVGIQFTTDGNGRGAIVYNIRKQSQAALSAAIVPGLSLIAINHEPVIALEFAVKIDYSHRIEVDKSASYLGSQMPNSSWKMVDKDDHVSRSARPGSVDDLIRELVAGTEVDLVDVVSFVLFLDSFSSLNEVVDRLSAHVRNGVKSHGLIRLFIVVLLFRQSETKEADDLRDRFYSLISLNIDAKDKLVPLVEEYMSLYKEYFSLRGAGNYAVNYQAIPGMMSKVYGMESGFEPVSSGPFSAHLHRFV |  | reduced growth of E. coli
t2: truncated Phytophthora sojae Alt-PLC1, SEQ ID NO: 18 (protein, Derived from Phytophthora sojae) YQFDSLALAGSRVSVSISTNDVGIQFTTDGNGRGAIVYNIRKQSQAALSAAIVPGLSLIAINHEPVIALEFAVKIDYSHRIEVDKSASYLGSQMPNSSWKMVDKDDHVSRSARPGSVDDLIRELVAGTEVDLVDVVSFVLFLDSFSSLNEVVDRLSAHVRNGVKSHGLIRLFIVVLLFRQSETKEADDLRDRFYSLISLNIDAKDKLVPLVEEYMSLYKEYFSLRGAGNYAVNYQAIPGMMSKVYGMESGFEPVSSGPFSAHLHRFVHPFIQRNHAATATVTMHHLLFTNPLTKAKGAIAANAFTHFVFQIHIIINQGIAATIAQRNRIRFTRFQFQATRITAFFAAIRQAHMQQFVHIFIMLQGIRHALTMQNFHRQFAHTTQTVRVHQAFFIKRRQFVQAHKALQIQANIRHARVRGFTHQTVHFTAAFIAQQLHFVHHFLCIQAQFQ |  | reduced growth of E. coli
t3: truncated Phytophthora sojae Alt-PLC1, SEQ ID NO: 19 (protein, Derived from Phytophthora sojae) YQFDSLALAGSRVSVSISTNDVGIQFTTDGNGRGAIVYNIRKQSQAALSAAIVPGLSLIAINHEPVIALEFAVKIDYSHRIEVDKSASYLGSQMPNSSWKMVDKDDHVSRSARPGSVDDLIRELVAGTEVDLVDVVSFVLFLDSFSSLNEVVDRLSAHVRNGVKSHGLIRLFIVVLLFRQSETKEADDLRDRFYSLISLNIDAKDKLVPLVEEYMSLYKEYFSLRGAGNYAVNYQAIPGMMSKVYGMESGFEPVSSGPFSAHLHRFVHPFIQRNHAATATVTMHHLLFTNPLTKAKGAIAANAFTHFVFQIHIIINQGIAATIAQRNRIRFTRFQFQATRITAFFAAIRQAHMQQFVHIFIMLQGIRHALTMQNFHRQFAHTTQTVRVHQAFFIKRRQFVQAHKALQIQANIRHARVRGFTHQTVHFTAAFIAQQLHFVHHFLCIQAQFQIKANHFRTFFRGVLHQHRVNHKRANMLKPTFNAGKFHAMLFLATGRNKITHRNFAKHRMGQQGALFRPTFRI |  | reduced growth of E. coli; also recorded: significantly higher lethality
